Assay results reported in patent publication US20250346668A1 (GENOR BIOPHARMA, published 2025).

How the values were obtained:
[1] = target: T1, human CD3e/g antigen (ACRO, catalog number CDG-H52W5) (human, UniProt P07766 23-126; P09693 23-116); test: SPR (Biacore 8K), antibody captured via anti-human Fc
T1 construct: Bought reagent used as the Biacore analyte; also called hCD3e/g
In short: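 Anti-human IgG (Fc) antibody amine-coupled on CM5 chip captures CD3 antibodies; antigen injected at a concentration series. Association and dissociation curves fitted kinetically to give equilibrium dissociation constant.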

CD3 on Jurkat cells = target: T2, CD3 on Jurkat cells (human); test: FACS on Jurkat cells, Alexa 488 secondary antibody, MFI [d]
T2 construct: native, on the surface of Jurkat cells; The sheets print only 'Jurkat'; also called human CD3; TCR/CD3 complex on the human T cell line Jurkat
Protocol: Jurkat cells were amplificatorily cultured to 3×10⁶/ml in a T-175 cell culture flask, the culture medium was removed by centrifugation, and the cells were washed twice with PBS buffer (purchased from Invitrogen). After cell counting, the cells were diluted to 2×10⁶ cells/ml with PBS buffer, added with 1% BSA blocking solution, where the percentage was a mass percentage, incubated on ice for 30 minutes, and then washed twice with PBS buffer by centrifugation. The collected cells were suspended to 2×10⁶ cells/mL with FACS buffer (PBS+1% BSA, where the percentage was a mass percentage), and added to a 96-well FACS reaction plate at 100 μl per well, and samples of the purified CD3 antibodies obtained in Example 4 to be tested were added at 100 μl per well, and incubated at 4° C. for 2 hours. The plate was washed twice with FACS buffer by centrifugation, added with 100 μl per well of fluorescent (Alexa 488) labeled secondary antibody (purchased from Jackson), and incubated at 4° C. for 1 hour. After washing 3 times by centrifugation with FACS buffer, the cells were suspended with 100 μl of FACS buffer, and detected and analyzed using BD FACS LSRFortessa (purchased from BD). The results are shown in FIG. 5, where the IgG control is human IgG1 (hIgG).

- Kd [1]: 21.2 nM
- koff [1]: 0.00372 s⁻¹
- kon [1]: 176000 M⁻¹ s⁻¹
- EC50 (read off the curve) (CD3 on Jurkat cells): ~3 nM
B1: CAb008 (antibody, V domains shown)
VH: QVQLQQSGAELARPGASVKMSCKTSGYTFTDYTVNWVKQRPGQGLEWIGYINPFNSYTKYNQKFKDKATLTADKSSSTAYMQLSSLTSEDSAVYFCANSVSTYWGQGTTLTVSS
VL: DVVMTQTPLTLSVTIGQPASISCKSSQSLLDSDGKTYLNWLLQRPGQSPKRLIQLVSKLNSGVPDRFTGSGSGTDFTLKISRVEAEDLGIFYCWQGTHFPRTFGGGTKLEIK
notes: Chimeric: mouse variable regions linked to human light and heavy constant regions; constant regions not specified
